T1: CD70 (human) (UniProt P32970)
T1 sequence: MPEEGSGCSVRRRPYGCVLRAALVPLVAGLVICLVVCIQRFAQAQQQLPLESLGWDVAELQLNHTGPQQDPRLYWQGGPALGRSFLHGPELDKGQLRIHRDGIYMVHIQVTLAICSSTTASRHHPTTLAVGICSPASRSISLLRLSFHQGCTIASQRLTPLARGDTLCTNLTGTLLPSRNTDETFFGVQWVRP

B1: mCD27-CD3ζ CAR (full-length mouse CD27 and a mouse CD3ζ T cell intracellular signaling domain) (receptor)
chain: PNSCPDKHYWTGGGLCCRMCEPGTFFVKDCEQDRTAAQCDPCIPGTSFSPDYHTRPHCESCRHCNSGFLIRNCTVTANAECSCSKNWQCRDQECTECDPPLNPALTRQPSETPSPQPPPTHLPHGTEKPSWPLHRQLPNSTVYSQRSSHRPLCSSDCIRIFVTFSSMFLIFVLGAILFFHQRRNHGPNEDRQAVPEEPCPYSCPREEEGSAIPIQEDYRKPEPAFYPRAKFSRSAETAANLQDPNQLYNELNLGRREEYDVLEKKRARDPEMGGKQQRRRNPQEGVYNALQKDKMAEAYSEIGTKGERRRGKGHDGLYQGLSTATKDTYDALHMQTLAPR
B2: full length (f) CD27-CD3ζ CAR (full-length human CD27 and a human CD3ζ T cell intracellular signaling domain) (receptor)
chain: ATPAPKSCPERHYWAQGKLCCQMCEPGTFLVKDCDQHRKAAQCDPCIPGVSFSPDHHTRPHCESCRHCNSGLLVRNCTITANAECACRNGWQCRDKECTECDPLPNPSLTARSSQALSPHPQPTHLPYVSEMLEARTAGHMQTLADFRQLPARTLSTHWPPQRSLCSSDFIRILVIFSGMFLVFTLAGALFLHQRRKYRSNKGESPVEPAEPCRYSCPREEEGSTIPIQEDYRKPEPACSPRVKFSRSADAPAYQQGQNQLYNELNLGRREEYDVLDKRRGRDPEMGGKPRRKNPQEGLYNELQKDKMAEAYSEIGMKGERRRGKGHDGLYQGLSTATKDTYDALHMQALPPR

How the values were obtained:
mouse CD70 (mouse) = mouse CD70 (mouse) (UniProt O55237); assay: cell-based or functional assay
Chain of UniProt O55237 (O55237 whole entry): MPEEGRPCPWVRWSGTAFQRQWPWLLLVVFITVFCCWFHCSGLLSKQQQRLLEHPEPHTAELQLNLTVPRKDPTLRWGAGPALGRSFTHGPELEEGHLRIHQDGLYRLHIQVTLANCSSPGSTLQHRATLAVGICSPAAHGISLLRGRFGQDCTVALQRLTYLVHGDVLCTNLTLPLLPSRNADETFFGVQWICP

CD70 (human) = biological target: T1, CD70 (human); assay: cell-based or functional assay

Binder | IFN-γ (pg/ml), mouse T cells/mCD27-CD3ζ CAR co-cultured with B16/mCD70 (mouse CD70 (mouse)) | IFN-γ (pg/ml), co-culture with 624/CD70 (CD70 Positive) (CD70 (human)) | IFN-γ (pg/ml), co-culture with RCC 1581 (CD70 Pos) (CD70 (human)) | IFN-γ (pg/ml), co-culture with RCC 2095R (CD70 Pos) (CD70 (human)) | IFN-γ (pg/ml), co-culture with RCC 2219R (CD70 Pos) (CD70 (human)) | IFN-γ (pg/ml), co-culture with RCC 2245R (CD70 Pos) (CD70 (human)) | IFN-γ (pg/ml), co-culture with RCC 2246R (CD70 Pos) (CD70 (human)) | IFN-γ (pg/ml), co-culture with RCC 2261R (CD70 Pos) (CD70 (human)) | IFN-γ (pg/ml), co-culture with RCC 2361R (CD70 Pos) (CD70 (human)) | IFN-γ (pg/ml), co-culture with RCC 2654R (CD70 Pos) (CD70 (human)) | IFN-γ (pg/ml), co-culture with RCC 2657R (CD70 Pos) (CD70 (human))
B1 | 642000 pg/mL |  |  |  |  |  |  |  |  |  | 
B2 |  | 6480 pg/mL | 11800 pg/mL | 5820 pg/mL | 12100 pg/mL | 9110 pg/mL | 8220 pg/mL | 7270 pg/mL | 2260 pg/mL | 7890 pg/mL | 3510 pg/mL
